The assay deals with human USP11 N-terminal DUSP-UBL (DU) domains, residues 24-244 (human). As to the kind of experiment: SEC; gel filtration of hUSP11DU at concentrations associated with crystallization.

“human USP11 N-terminal DUSP-UBL (DU) domains, residues 24-244 (domain or fragment)” yielded a fraction of dimer of 5%.

Values taken from paper PMC4020902.
